Assay results reported in article PMC9453702, “Structure-function analysis of enterovirus protease 2A in complex with its essential host factor SETD3” (Nature Communications, 2022).
Substitutions are numbered along the chain they refer to. Names may count otherwise.

Legend:
[1] = target: coxsackievirus B3 protease 2A with C-terminal His6-tag (for biolayer interferometry); assay: biolayer interferometry; conditions: parent: 0.0051 s-1
actin (Homo sapiens) = actin (Homo sapiens) (UniProt P60709); conditions: cited from earlier work
[2] = target: 2xStrep-tagged catalytically dead CV-B3 2A, expressed in human cells; assay: FLAG affinity purification with label-free quantitative MS; conditions: co-transfected CV-B3 2A; four biologically independent experiments; parent: est. 5.5e7; read off a plot
[3] = target: T1, human SETD3, wild type (recombinant, tag cleaved) (human, UniProt Q86TU7 1-594); assay: BLI; competition: His-tagged 2A on Ni-NTA biosensors, 3-fold dilution series of actin peptide (40 nM to 10 µM) with SETD3 constant at 310 nM; 20 mM Tris/HCl pH 8.0, 150 mM NaCl, 5% glycerol, 1 mM DTT; maximum binding against peptide concentration; conditions: both partners purified
T1 construct: SETD3, actin histidine methyltransferase, human; codon-optimised gene in vector 2G-T; also called WT SETD3; SETD3 WT; source: E. coli BL21*(DE3), purified (Glutathione Sepharose 4B, TEV digest, His-Trap FF flow-through; Superdex 200 Increase for BLI)
T1 sequence: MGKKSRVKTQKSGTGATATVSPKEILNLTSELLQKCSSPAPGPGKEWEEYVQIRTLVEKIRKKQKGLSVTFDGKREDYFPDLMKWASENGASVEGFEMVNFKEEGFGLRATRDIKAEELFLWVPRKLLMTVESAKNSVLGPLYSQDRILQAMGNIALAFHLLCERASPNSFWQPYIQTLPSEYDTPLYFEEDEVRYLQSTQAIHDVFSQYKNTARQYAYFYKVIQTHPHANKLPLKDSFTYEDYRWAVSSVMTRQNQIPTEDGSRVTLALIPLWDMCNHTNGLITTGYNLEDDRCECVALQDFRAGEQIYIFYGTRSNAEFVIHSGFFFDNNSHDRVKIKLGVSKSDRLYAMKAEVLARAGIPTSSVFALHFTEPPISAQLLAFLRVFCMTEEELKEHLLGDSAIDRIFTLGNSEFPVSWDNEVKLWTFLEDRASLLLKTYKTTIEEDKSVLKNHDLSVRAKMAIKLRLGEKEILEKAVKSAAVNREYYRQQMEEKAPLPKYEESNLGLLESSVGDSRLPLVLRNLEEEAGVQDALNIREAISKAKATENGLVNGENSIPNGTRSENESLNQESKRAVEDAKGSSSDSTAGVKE

[4] = target: coxsackievirus B3 (Nancy strain) protease 2A, C107A (recombinant, tag cleaved) (coxsackievirus B3 (Nancy strain))
[5] = target: coxsackievirus B3 protease 2A with C-terminal His6-tag (for biolayer interferometry) (coxsackievirus B3 (Nancy strain)); assay: BLI; Octet RED384; His-tagged 2A loaded on Ni-NTA biosensors at 20 µg/ml, SETD3 variants in solution at several concentrations; 20 mM Tris/HCl pH 8.0, 150 mM NaCl, 5% glycerol, 1 mM DTT; global fit with Rmax unlinked

Question: For “human SETD3, wild type (recombinant, tag cleaved) (from UniProt Q86TU7) Y288P”, which koff [1] is on record?
Answer: 0.32 s⁻¹

Question: Which koff [1] does the source give for “human SETD3, wild type (recombinant, tag cleaved) (from UniProt Q86TU7) Q257A; V266D” here?
Answer: 0.45 s⁻¹

Question: For “human SETD3, wild type (recombinant, tag cleaved) (from UniProt Q86TU7) G361R”, which koff [1] is on record?
Answer: 0.0116 s⁻¹

Question: For SETD3 (from UniProt Q86TU7), which Kd (actin (Homo sapiens)) is on record?
Answer: 170 nM

Question: Which response [2] does the source give for “FLAG-tagged SETD3, wild type, expressed in human cells (from UniProt Q86TU7) Q257A; V266D; Y288P” here?
Answer: 900000

Question: Which koff [1] does the source give for “human SETD3, wild type (recombinant, tag cleaved) (from UniProt Q86TU7) G361R; F409A” here?
Answer: 0.0131 s⁻¹

Question: With “FLAG-tagged SETD3, wild type, expressed in human cells (from UniProt Q86TU7) Q257A; V266D; Y288P; G361R” as the molecule, how does the response [2] read?
Answer: 450000

Question: With “FLAG-tagged SETD3, wild type, expressed in human cells (from UniProt Q86TU7) Q257A; V266D” as the molecule, how does the response [2] read?
Answer: 1.7e+06

B1: synthetic actin peptide, residues 66-81, H73L (peptide)
peptide: TLKYPIELGIVTNWDD
notes: also called actin peptide 66-81 with His73 replaced by leucine; source: synthetic peptide
Question: With B1 as the molecule, how does the IC50 [3] read?
Answer: 1500 to 3400 nM

B2: human SETD3, wild type (recombinant, tag cleaved) (enzyme)
chain: T1 sequence
Question: For B2, which 2A protease activity towards a FRET peptide of the VP1-2A cis-cleavage site; catalytically active WT 2A alone against its complex with WT SETD3 [4] is on record?
Answer: 1.5 fold

Question: What about the kcat/Km of catalytically active WT 2A in complex with WT SETD3 towards a FRET peptide of the VP1-2A cis-cleavage site (1.5 mM^-1 min^-1 for 2A alone) [4] of the same molecule?
Answer: 38 M⁻¹ s⁻¹

Question: What about the Kd [5] of the same molecule?
Answer: 47 nM

B3: human SETD3 Q257A + V266D (recombinant, tag cleaved) (enzyme)
chain: T1 sequence with Q257A, V266D
Question: Which Kd [5] does the source give for B3 here?
Answer: 10000 nM

B4: human SETD3 G361R + F409A (recombinant, tag cleaved) (enzyme)
chain: T1 sequence with G361R, F409A
Question: With B4 as the molecule, how does the Kd [5] read?
Answer: 132 nM

B5: human SETD3 G361R (recombinant, tag cleaved) (enzyme)
chain: T1 sequence with G361R
Question: With B5 as the molecule, how does the Kd [5] read?
Answer: 110 nM

B6: human SETD3 Y288P (recombinant, tag cleaved) (enzyme)
chain: T1 sequence with Y288P
Question: Which Kd [5] does the source give for B6 here?
Answer: 2500 nM
